Laboratory results published in the Human Domainome abundance scans (Beltran et al. 2025).
± gives the uncertainty stated by the source.

Assay: abundance fitness (aPCA) (normalised: wild type 0, dead -1); higher = more abundant; growth selection in yeast, the domain comes from the species named
Details: Homo sapiens

Substance	abundance fitness
BAG family molecular chaperone regulator 3 S44H, O95817	-0.481 ± 0.37
SAFB-like transcription modulator K20G, Q9NWH9	-0.638 ± 0.082
BAG family molecular chaperone regulator 3 D20V, O95817	-0.241 ± 0.074
BAG family molecular chaperone regulator 3 D41R, O95817	-0.59 ± 0.084
SAFB-like transcription modulator D62Q, Q9NWH9	-0.334 ± 0.079
SAFB-like transcription modulator T23Y, Q9NWH9	-0.083 ± 0.033
BAG family molecular chaperone regulator 3 P32D, O95817	-0.64 ± 0.39
BAG family molecular chaperone regulator 3 P52K, O95817	-0.039 ± 0.22
BAG family molecular chaperone regulator 3 N50Q, O95817	-0.176 ± 0.1
SAFB-like transcription modulator K20M, Q9NWH9	-0.035 ± 0.075
SAFB-like transcription modulator N38P, Q9NWH9	-1.06 ± 0.15
BAG family molecular chaperone regulator 3 P24K, O95817	0.269 ± 0.16
SAFB-like transcription modulator N38R, Q9NWH9	-0.141 ± 0.044
BAG family molecular chaperone regulator 3 P23E, O95817	-0.544 ± 0.14
BAG family molecular chaperone regulator 3 G58V, O95817	-0.129 ± 0.064
SAFB-like transcription modulator I66H, Q9NWH9	-0.226 ± 0.12
SAFB-like transcription modulator E59R, Q9NWH9	-0.532 ± 0.054
BAG family molecular chaperone regulator 3 P21G, O95817	0.43 ± 0.057
BAG family molecular chaperone regulator 3 S14W, O95817	-0.576 ± 0.23
SAFB-like transcription modulator K31Y, Q9NWH9	-0.213 ± 0.075
BAG family molecular chaperone regulator 3 I30E, O95817	-0.226 ± 0.079
SAFB-like transcription modulator I56W, Q9NWH9	-0.561 ± 0.069
SAFB-like transcription modulator V27N, Q9NWH9	-0.453 ± 0.16
SAFB-like transcription modulator T42L, Q9NWH9	-0.345 ± 0.069
BAG family molecular chaperone regulator 3 G35D, O95817	0.202 ± 0.13

Substance	abundance fitness
SAFB-like transcription modulator I66R, Q9NWH9	-0.443 ± 0.061
SAFB-like transcription modulator T23R, Q9NWH9	-0.178 ± 0.033
SAFB-like transcription modulator I66N, Q9NWH9	-0.432 ± 0.18
SAFB-like transcription modulator K45S, Q9NWH9	-0.25 ± 0.055
SAFB-like transcription modulator G60N, Q9NWH9	-0.108 ± 0.04
BAG family molecular chaperone regulator 3 S14V, O95817	-0.219 ± 0.14
SAFB-like transcription modulator E59N, Q9NWH9	-0.275 ± 0.056
SAFB-like transcription modulator G61E, Q9NWH9	-0.303 ± 0.064
BAG family molecular chaperone regulator 3 S56V, O95817	0.08 ± 0.1
SAFB-like transcription modulator E58F, Q9NWH9	-0.105 ± 0.054
SAFB-like transcription modulator E57T, Q9NWH9	-0.122 ± 0.079
BAG family molecular chaperone regulator 3 N43A, O95817	-0.331 ± 0.087
SAFB-like transcription modulator L39M, Q9NWH9	0.017 ± 0.047
SAFB-like transcription modulator T42I, Q9NWH9	-0.682 ± 0.14
BAG family molecular chaperone regulator 3 W26Y, O95817	-0.326 ± 0.48
SAFB-like transcription modulator D29G, Q9NWH9	-0.725 ± 0.096
SAFB-like transcription modulator N65H, Q9NWH9	-0.166 ± 0.084
SAFB-like transcription modulator V47R, Q9NWH9	-0.207 ± 0.043
BAG family molecular chaperone regulator 3 A13G, O95817	-0.412 ± 0.094
SAFB-like transcription modulator S32G, Q9NWH9	-0.077 ± 0.051
BAG family molecular chaperone regulator 3 Q11V, O95817	0.619 ± 0.1
BAG family molecular chaperone regulator 3 L22M, O95817	0.023 ± 0.17
SAFB-like transcription modulator V44A, Q9NWH9	0.064 ± 0.039
SAFB-like transcription modulator E57R, Q9NWH9	0.034 ± 0.06
SAFB-like transcription modulator I28W, Q9NWH9	-0.365 ± 0.11

Substance	abundance fitness
BAG family molecular chaperone regulator 3 R19H, O95817	-0.399 ± 0.18
SAFB-like transcription modulator I49W, Q9NWH9	-0.449 ± 0.041
SAFB-like transcription modulator E58R, Q9NWH9	0.028 ± 0.034
BAG family molecular chaperone regulator 3 G35W, O95817	-0.726 ± 0.19
BAG family molecular chaperone regulator 3 P55T, O95817	-0.427 ± 0.23
BAG family molecular chaperone regulator 3 G25D, O95817	-0.548 ± 0.23
BAG family molecular chaperone regulator 3 D31S, O95817	-0.67 ± 0.2
BAG family molecular chaperone regulator 3 G25N, O95817	0.081 ± 0.21
BAG family molecular chaperone regulator 3 P37N, O95817	0.448 ± 0.2
SAFB-like transcription modulator V27F, Q9NWH9	-0.585 ± 0.15
BAG family molecular chaperone regulator 3 F39T, O95817	-0.587 ± 0.26
SAFB-like transcription modulator L48F, Q9NWH9	-0.886 ± 0.062
SAFB-like transcription modulator G19C, Q9NWH9	-0.391 ± 0.19
SAFB-like transcription modulator G19D, Q9NWH9	-0.027 ± 0.078
BAG family molecular chaperone regulator 3 W26E, O95817	-0.885 ± 0.25
BAG family molecular chaperone regulator 3 S14Q, O95817	0.677 ± 0.15
BAG family molecular chaperone regulator 3 D18T, O95817	0.03 ± 0.11
BAG family molecular chaperone regulator 3 P52R, O95817	-0.633 ± 0.12
BAG family molecular chaperone regulator 3 G17Q, O95817	0.968 ± 0.098
BAG family molecular chaperone regulator 3 F38D, O95817	-0.57 ± 0.14
SAFB-like transcription modulator K20C, Q9NWH9	-0.115 ± 0.043
BAG family molecular chaperone regulator 3 N50K, O95817	-0.176 ± 0.11
BAG family molecular chaperone regulator 3 V40N, O95817	0.081 ± 0.23
SAFB-like transcription modulator L25T, Q9NWH9	-0.536 ± 0.063
SAFB-like transcription modulator R37N, Q9NWH9	-1.12 ± 0.17

Substance	abundance fitness
SAFB-like transcription modulator T42M, Q9NWH9	-0.104 ± 0.09
BAG family molecular chaperone regulator 3 G35K, O95817	0.766 ± 0.078
BAG family molecular chaperone regulator 3 G35F, O95817	-0.552 ± 0.11
BAG family molecular chaperone regulator 3 N43S, O95817	0.004 ± 0.2
BAG family molecular chaperone regulator 3 T47A, O95817	-0.613 ± 0.17
SAFB-like transcription modulator L34T, Q9NWH9	-0.831 ± 0.067
SAFB-like transcription modulator E67D, Q9NWH9	-0.107 ± 0.086
BAG family molecular chaperone regulator 3 T47N, O95817	-0.53 ± 0.2
BAG family molecular chaperone regulator 3 D20P, O95817	-0.22 ± 0.19
SAFB-like transcription modulator S50I, Q9NWH9	-0.514 ± 0.29
BAG family molecular chaperone regulator 3 R45S, O95817	-0.354 ± 0.084
BAG family molecular chaperone regulator 3 A13L, O95817	0.127 ± 0.13
SAFB-like transcription modulator T42K, Q9NWH9	0.035 ± 0.11
SAFB-like transcription modulator P63V, Q9NWH9	-0.09 ± 0.034
SAFB-like transcription modulator E58M, Q9NWH9	0.008 ± 0.071
SAFB-like transcription modulator D29C, Q9NWH9	-0.854 ± 0.22
BAG family molecular chaperone regulator 3 G35Y, O95817	-0.304 ± 0.24
BAG family molecular chaperone regulator 3 N16M, O95817	0.276 ± 0.065
BAG family molecular chaperone regulator 3 F39Y, O95817	-0.244 ± 0.24
BAG family molecular chaperone regulator 3 I30R, O95817	-0.133 ± 0.084
SAFB-like transcription modulator R51N, Q9NWH9	-0.403 ± 0.037
SAFB-like transcription modulator I22N, Q9NWH9	-0.659 ± 0.11
